Results on 84 variants are retold here after the RNAGym collection of RNA variant scans (doi:10.1093/molbev/msab373).

The labels stand for the following.
B1: Azoarcus group I ribozyme (parent)
chain: GUGCCUUGCGCCGGGAAACCACGCAAGGGAUGGUGUCAAAUUCGGCGAAACCUAAGCGCCCGCCCGGGCGUAUGGCAACGCCGAGCCAAGCUUCGGCGCCUGCGCCGAUGAAGGUGUAGAGACUAGACGGCACCCACCUAAGGCAAACGCUAUGGUGAAGGCAUAGUCCAGGGAGUGGCGAAAGUCACACAAACCGG

Variants of B1 are the subject of the series. Description: reverse-splicing fitness (ratio to wild type); higher = more active; in vitro selection; Mg2+ level not given. A digest of the protocol:
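An in vitro group I ribozyme library with randomized positions was T7-transcribed and gel-purified. In triplicate, 10 pmol RNA in EPPS pH 7.5 was reacted with 50 pmoles of a 30-nt RNA substrate for 1 h at 37 °C across several added MgCl2 levels (1–48 mM), then stopped with EDTA. Products were reverse transcribed from a substrate-complementary primer, PCR-amplified and sequenced (HiSeq 4000). Fitness is a variant's read proportion after selection over that before, normalised to wild type.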
With C82U A111U A120C A145C C169U U176G, the reverse-splicing fitness amounted to 0.00412. The same measure for C82U A111U A120C A145C C169U U176C: 0.0109; for C82U A111U A120C A145C C169U U176A: 0.013; for C82U A111U A120C A145C C150G C169A U176G: 0.00527. On to C82U A111U A120C A145C C150G C169A U176A, for which the reverse-splicing fitness is 0.00641.

Regarding C82U A111U A120C A145C C150G C169A U176C, the reverse-splicing fitness was 0.00591. Turning to C82U A111U A120C A145C C150U C169U, the reverse-splicing fitness was 0.00899. As for C82U A111U A120C A145C C150U C169G, the reverse-splicing fitness was 0.00639. Regarding C82U A111U A120C A145C C150U C169A, the reverse-splicing fitness was 0.00709. Consider C82U A111U A120G A145C C150G C169A U176A, for which the reverse-splicing fitness turned out to be 0.00764. Take C82U A111U A120G A145C C150G C169A U176C: the reverse-splicing fitness turned out to be 0.006. The same measure for C82U A111U A120G A145C C150G C169A U176G: 0.00478.

Consider C82U A111U A120C A145C C150A C169A U176A, for which the reverse-splicing fitness came to 0.00878. C82U A111U A120C A145C C150A C169A U176C: the reverse-splicing fitness amounted to 0.0057.

In the case of C82U A111U A120C A145C C150A C169A U176G, the reverse-splicing fitness was 0.00538. C82U A111G C150U U176C: the reverse-splicing fitness was 0.146. For C82U A111G C150U U176G, the reverse-splicing fitness stood at 0.0286. The same measure for C82U A111G C150U U176A: 0.102; for C82U A111U A120C A145G C150G U176A: 0.00644; for C82U A111U A120C A145G C150G U176C: 0.0109. For the variant C82U A111U A120C A145G C150G U176G, the reverse-splicing fitness came to 0.00575. The same measure for C82U A111G C150G: 0.0267; for C82U A111G C150U: 0.224; for C82U A111U A120C A145C C169A: 0.0065. Regarding C82U A111U A120C A145C C169U, the reverse-splicing fitness worked out at 0.011. The same measure for C82U A111U A120C A145C C169G: 0.00709; for C82U A111U A120C A145U C169G U176G: 0.00433.

Turning to C82U A111U A120C A145U C169G U176A, the reverse-splicing fitness is 0.00882.

For the variant C82U A111U A120C A145U C169G U176C, the reverse-splicing fitness was found to be 0.00955.

For C82U A111U A120C A145U C150G C169U U176C, the reverse-splicing fitness worked out at 0.0122. Regarding C82U A111U A120C A145U C150G C169U U176A, the reverse-splicing fitness was 0.00894. The same measure for C82U A111U A120C A145U C150G C169U U176G: 0.00523. For C82U A111U A120C A145G C150G, the reverse-splicing fitness came to 0.00928. C82U A111U A120C A145G C150U: the reverse-splicing fitness is 0.0229. As to C82U A111U A120C A145G C150A, the reverse-splicing fitness came out at 0.0116. The same measure for C82U A111G C169U U176C: 0.0132; for C82U A111G C169U U176A: 0.0145. With C82U A111G C169U U176G, the reverse-splicing fitness came out at 0.00449. Regarding C82U A111U, the reverse-splicing fitness amounted to 0.327. Take C82U A111U A120C A145C C150G C169U U176C: the reverse-splicing fitness came out at 0.0116. The same measure for C82U A111U A120C A145C C150G C169U U176G: 0.00477; for C82U A111U A120C A145C C150G C169U U176A: 0.0108. The same measure for C82U A111G C150G C169U U176A: 0.00707; for C82U A111G C150G C169U U176C: 0.0122. Turning to C82U A111G C150G C169U U176G, the reverse-splicing fitness came to 0.00511. As to C82U A111G C169G, the reverse-splicing fitness stood at 0.0092. The same measure for C82U A111G C169U: 0.0128; for C82U A111G C169A: 0.0072; for C82U A111U A120C A145G C150A C169A U176A: 0.0207. On to C82U A111U A120C A145G C150A C169A U176C, for which the reverse-splicing fitness came to 0.0189.

C82U A111U A120C A145G C150A C169A U176G: the reverse-splicing fitness is 0.0059. C82U A111U A120C A145U C150G C169G U176A: the reverse-splicing fitness came to 0.00657.

On to C82U A111U A120C A145U C150G C169G U176G, for which the reverse-splicing fitness was found to be 0.0048. In the case of C82U A111U A120C A145U C150G C169G U176C, the reverse-splicing fitness was determined as 0.0054. The same measure for C82U A111U A120C C150A C169G U176A: 0.0178. Turning to C82U A111U A120C C150A C169G U176C, the reverse-splicing fitness is 0.0181. As to C82U A111U A120C C150A C169G U176G, the reverse-splicing fitness was found to be 0.00669. The same measure for C82U A111U A120C A145G C169U U176C: 0.0162; for C82U A111U A120C A145G C169U U176G: 0.00475. The same measure for C82U A111U A120C A145G C169U U176A: 0.0163. The same measure for C82U A111U A120C A145G C150A C169U U176C: 0.0167; for C82U A111U A120C A145G C150A C169U U176A: 0.0148; for C82U A111U A120C A145G C150A C169U U176G: 0.00615. Take C82U A111U A120C A145U C150A C169A U176A: the reverse-splicing fitness is 0.0106.

On to C82U A111U A120C A145U C150A C169A U176C, for which the reverse-splicing fitness was 0.0094. For the variant C82U A111U A120C A145U C150A C169A U176G, the reverse-splicing fitness stood at 0.00478. The same measure for C82U A111U A120C A145G C150U U176A: 0.0116. Consider C82U A111U A120C A145G C150U U176C, for which the reverse-splicing fitness was determined as 0.0214. In the case of C82U A111U A120C A145G C150U U176G, the reverse-splicing fitness worked out at 0.00597. The same measure for C82U A111U A120G A145C C150A C169A U176A: 0.0108; for C82U A111U A120G A145C C150A C169A U176C: 0.0062; for C82U A111U A120G A145C C150A C169A U176G: 0.00517. The same measure for C82U A111U A120G A145C C150G: 0.00668; for C82U A111U A120G A145C C150A: 0.0064. The same measure for C82U A111G C150A C169U U176G: 0.00684; for C82U A111U A120C A145G C169G U176A: 0.0152; for C82U A111U A120C A145G C169G U176G: 0.00473. For C82U A111U A120C A145G C169G U176C, the reverse-splicing fitness was 0.0209. The same measure for C82U A111U A120C A145C U176C: 0.0132; for C82U A111U A120C A145C U176A: 0.0125; for C82U A111U A120C A145C U176G: 0.00539. The same measure for C82U A111U A120G A145C C150A C169U: 0.00623; for C82U A111U A120G A145C C150A C169G: 0.00785; for C82U A111U A120G A145C C150A C169A: 0.00756.
